The values below come from publication PMC12051542, “Identification of the phosphatase essential for riboflavin biosynthesis in Aquifex aeolicus” (The Journal of Biological Chemistry, 2025).

For data set [1], the target named is putative phosphatase 17 (PP17), a histidine family phosphatase (HFP), Aquifex aeolicus (Aquifex aeolicus). The data set is described as follows: SEC; preparative gel filtration, 120 ml HiLoad 16/600 Superdex 75 prep grade column, 50 mM Hepes pH 8.0, 150 mM NaCl, 20% glycerol. (Size exclusion chromatography separates by hydrodynamic size, large species first.)
Data set [2] deals with the molecule itself. Kind of data set: SEC; 120 ml HiLoad 16/600 Superdex 75 prep grade column, 50 mM Hepes pH 8.0, 150 mM NaCl, 20% glycerol; molecular weight from a standard curve of commercial standard proteins (65 kDa).

For orientation: stoichiometry N means the number of molecules, sites or subunits per partner or assembly.

Turning to “putative phosphatase 17 (PP17), a histidine family phosphatase (HFP), Aquifex aeolicus (enzyme)”, in data set [1], the stoichiometry N came to 2.

B1: putative phosphatase 11 (PP11), annotated as a myo-inositol-1(or 4)-monophosphatase (IMP), Aquifex aeolicus (enzyme)
chain: MENLKKYLEVAKIAALAGGQVLKENFGKVKKENIEEKGEKDFVSYVDKTSEERIKEVILKFFPDHEVVGEEMGAEGSGSEYRWFIDPLDGTKNYINGFPIFAVSVGLVKGEEPIVGAVYLPYFDKLYWGAKGLGAYVNGKRIKVKDNESLKHAGVVYGFPSRSRRDISIYLNIFKDVFYEVGSMRRPGAAAVDLCMVAEGIFDGMMEFEMKPWDITAGLVILKEAGGVYTLVGEPFGVSDIIAGNKALHDFILQVAKKYMEVAV
notes: Aquifex aeolicus putative phosphatase 11, annotated as myo-inositol-1(or 4)-monophosphatase; codon optimised, in pET20b with a stop codon before the C-terminal histidine tag so that the protein is expressed in the native form; Untagged; Two magnesium ions and a phosphate in the active site of the structure; source: E. coli BL21 (DE3), purified (heat 70 °C, gel filtration)
For B1, the “stoichiometry N” value in data set [2] worked out at 2.
